Measurements published in paper PMC4499159.
Values belong to the substance of their own block, whether it stands above or below them.

How the values were obtained:
[1] = target: DNA polymerase beta (Polβ) (rat) (UniProt P06766); assay: fluorescence titration; details: 50 mM HEPES pH 8.0, 100 mM NaCl, 4 mM DTT (+10 mM EDTA for APE1), labelled protein from 20 nM, temperature not stated
[2] = target: AP endonuclease 1 (APE1) (human) (UniProt P27695); assay: fluorescence titration; details: 50 mM HEPES pH 8.0, 100 mM NaCl, 4 mM DTT (+10 mM EDTA for APE1); labelled protein from 20 nM; temperature not stated
[3] = target: XRCC1 (human) (UniProt P18887); assay: fluorescence titration; details: 50 mM HEPES pH 8.0, 100 mM NaCl, 4 mM DTT (+10 mM EDTA for APE1), labelled protein from 20 nM, temperature not stated
[4] = target: apurinic/apyrimidinic endonuclease 1 (human) (UniProt P27695); assay: other fluorescence titration; FAM-labelled protein at 40 nM (fixed) titrated with the unlabelled partner; 50 mM HEPES pH 8.0, 100 mM NaCl, 4 mM DTT; excitation 485 nm, emission 520 nm; EC50 from a four-parameter logistic fit, an apparent equilibrium dissociation constant
[5] = target: X-ray repair cross-complementing protein 1 (human) (UniProt P18887); assay: other fluorescence titration; TAF-labelled XRCC1 at 40 nM (fixed) titrated with the unlabelled partner; 50 mM HEPES pH 8.0, 100 mM NaCl, 4 mM DTT; EC50 from a four-parameter logistic fit, apparent
[6] = target: X-ray repair cross-complementing protein 1 (human) (UniProt P18887); assay: dynamic light scattering; individual proteins or equimolar mixtures at 6 μM; 25 mM HEPES pH 7.5, 100 mM NaCl, 1 mM DTT; 24°C; hydrodynamic radius compared with predicted values
[7] = target: apurinic/apyrimidinic endonuclease 1 (human) (UniProt P27695); assay: FRET or BRET; FAM-labelled protein (donor, 40 nM, fixed) titrated with the TMR-labelled partner (acceptor); corrected for acceptor signal; E = 1 - Fda/Fd; EC50 is that of the TMR-labelled partner; 50 mM HEPES pH 8.0, 100 mM NaCl, 4 mM DTT; apparent
[8] = target: DNA polymerase β (rat) (UniProt P06766); assay: as above
[9] = target: apurinic/apyrimidinic endonuclease 1 (human) (UniProt P27695); assay: dynamic light scattering; individual proteins or equimolar mixtures at 6 μM; 25 mM HEPES pH 7.5, 100 mM NaCl, 1 mM DTT; 24°C; hydrodynamic radius compared with predicted values
[10] = target: FAM-labeled human apurinic/apyrimidinic endonuclease 1 (human) (UniProt P27695); assay: other fluorescence titration; 40 nM FAM-APE1 premixed with 160 nM AP-DNA, titrated with unlabeled partner; 50 mM HEPES pH 8.0, 100 mM NaCl, 4 mM DTT, 10 mM EDTA; EC50 from four-parameter fit, apparent
[11] = target: FAM-labeled human apurinic/apyrimidinic endonuclease 1 (human) (UniProt P27695); assay: other fluorescence titration; 40 nM FAM-APE1 premixed with 160 nM gap-DNA, titrated with unlabeled partner; 50 mM HEPES pH 8.0, 100 mM NaCl, 4 mM DTT, 10 mM EDTA; EC50 from four-parameter fit, apparent
[12] = target: FAM-labeled human apurinic/apyrimidinic endonuclease 1 (human) (UniProt P27695); assay: other fluorescence titration; 40 nM FAM-APE1 premixed with 160 nM incised AP-DNA, titrated with unlabeled partner; 50 mM HEPES pH 8.0, 100 mM NaCl, 4 mM DTT, 10 mM EDTA; EC50 from four-parameter fit, apparent

Substance: GGCGATTAAGTTGGGNAACGTCAGGGTCTTCC / GGAAGACCCTGACGTTACCCAACTTAATCGCC [AP-DNA]
K half ([1]; N16 of strand 1 = THF abasic site): 20 nM

Substance: GGCGATTAAGTTGGGTAACGTCAGGGTCTTCC (double strand) [ds-DNA]
K half [1]: 160 nM
K half [2]: 100 nM
K half [3]: 110 nM

EC50 [4]: 76 nM
EC50 [5]: 73 nM
stoichiometry N [6]: 2
Substance: X-ray repair cross-complementing protein 1 (from UniProt P18887 1-633) (natural protein)

EC50 [4]: 120 nM
stoichiometry N [4]: 2
EC50 [7]: 130 nM
EC50 [8]: 90 nM
FRET efficiency E [8]: 0.37
stoichiometry N [9]: 2
Substance: apurinic/apyrimidinic endonuclease 1 (from UniProt P27695 1-318) (enzyme)

EC50 [10]: 78 nM
EC50 [11]: 51 nM
EC50 [12]: 83 nM
Substance: human X-ray repair cross-complementing protein 1 (from UniProt P18887 1-633) (natural protein)

Substance: nick-pUC19
K half ([1]; nicked by N.Bst9I): 30 nM
K half ([3]; TAF-XRCC1, n 0.60, nicked by N.Bst9I): 10 nM

Substance: pUC19
K half [1]: 2400 nM
K half ([3]; TAF-XRCC1, n 0.63): 1700 nM
